According to patent publication US20060210570A1:

Molecular target: prostasin (recombinant human, soluble, active two-chain form purified from conditioned medium of CHO cells transfected with full-length prostasin) (human) (UniProt Q16651)
Experiment: cell-based or functional assay

IC50 (nM), inhibition of prostasin amidolytic activity towards S2765 | Substance
> 1000 nM | Alzheimer's amyloid β protein precursor inhibitor (APPI) (from UniProt P05067 287-344)
109 nM | sHAI-1 (obtained from R & D Systems, Inc.) (from UniProt O43278 36-449)
66 nM | sHAI-1B wildtype (soluble hepatocyte growth factor activator inhibitor-1B, entire extracellular domain) (from UniProt O43278 36-465)
